Assay results reported in article doi:10.1101/2021.08.16.456586.
Read-outs that look alike come from different tables or passages of the source.

Legend:
[1] = biological target: Empty HBV Cp183 capsid (Hepatitis B Virus (strain not stated)) (UniProt P03147); experiment: charge detection mass spectrometry
[2] = biological target: Empty HBV Cp183 capsid (Hepatitis B Virus (strain not stated)) (UniProt P03147); experiment: charge detection mass spectrometry; remark: listed apart in the source
[3] = biological target: Empty HBV Cp183 capsid (Hepatitis B Virus (strain not stated)) (UniProt P03147); experiment: charge detection mass spectrometry; remark: listed apart in the source
[4] = biological target: Empty HBV Cp183 capsid (Hepatitis B Virus (strain not stated)) (UniProt P03147); experiment: negative stain TEM, 2D class averages

UniProt P03147, sequence (P03147 whole entry): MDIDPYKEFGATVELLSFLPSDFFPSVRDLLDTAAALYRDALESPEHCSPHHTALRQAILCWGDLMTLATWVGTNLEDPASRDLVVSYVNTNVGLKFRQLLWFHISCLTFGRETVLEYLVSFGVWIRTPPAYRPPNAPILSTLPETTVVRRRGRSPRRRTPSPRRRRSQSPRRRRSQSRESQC

Importin β (from UniProt Q14974 1-876) (natural protein)
stoichiometry N (Impβ per capsid) [1]: 38
stoichiometry N (Impβ per capsid) [2]: 38
stoichiometry N (Impβ per capsid) [3]: 64
percent of empty capsids with externally bound Impβ [4]: 90%
percent of particles with visible, externally bound Impβ [4]: 48%
